{"source": "paper PMC12576456", "key": {"[1]": {"molecular_target": "YFT1-C^S927D/S1118D (cYFP fusion) (tomato (Solanum lycopersicum))", "test": "split reporter (BiFC, NanoBiT); BiFC: nYFP-SlTFT1 with YFT1-C derivatives fused to cYFP, transiently co-transformed into N. benthamiana leaves via Agrobacterium; YFP by confocal microscopy, intensity by ImageJ"}, "[2]": {"molecular_target": "YFT1-C^S927A/S1118A (cYFP fusion) (tomato (Solanum lycopersicum))", "test": "split reporter (BiFC, NanoBiT); BiFC: nYFP-SlTFT1 with YFT1-C derivatives fused to cYFP, transiently co-transformed into N. benthamiana leaves via Agrobacterium; YFP by confocal microscopy, intensity by ImageJ"}}}
{"substance": "nYFP-SlTFT1 (natural protein)", "values": [{"measurement": "BiFC YFP fluorescence, percent of YFT1-C", "setting": "[1]", "result": 114, "unit": "%"}, {"measurement": "BiFC YFP fluorescence, percent of YFT1-C", "setting": "[2]", "result": 67, "unit": "%"}]}
